The test has as its target GST protein (free GST, cleaved from GST-tagged proteins). Nature of the test: SAXS.

“GST protein (free GST, cleaved from GST-tagged proteins) (enzyme)” came in with a stoichiometry N of 2.

The term stoichiometry N denotes a count of units in the complex or per binding partner.

(Values after doi:10.1101/2022.05.20.492803.)
